In patent publication US20120039802A1 (published 2012):
Ends that are not written are not given here.

Assays:
[1] = molecular target: T1, cMet-Fc fusion protein (extracellular domain of the cMet receptor expressed as an Fc-fusion protein) (human, UniProt P08581 25-932); test: phage ELISA on cMet-Fc, competitor HGF 100 ng/mL
T1 construct: extracellular domain; also called soluble cMet-Fc-fusion protein; soluble cMet receptor; not shown: Fc part
Method: (§1) These assays were conducted using the peptide-displaying phage discovered from the initial selection and screening campaigns using the first generation peptide libraries. Briefly, 96-well plates were coated overnight at 4 C with 0.5 μg/mL of cMet-Fc fusion protein or TRAIL-Fc fusion protein (background). The plates were blocked for 2 hours at 37 C with 3% BSA in PBST. […] This was followed by an addition of 30 μL of peptide-displaying phage overnight culture to each well. The plates were incubated for 2 hours at room temperature, washed with PBST and cMet-binding peptide-displaying phage was detected using an HRP-conjugated anti-M13 antibody.

[2] = molecular target: T2, human cMet expressed on 3T3 cells (human, UniProt P08581 25-1390); test: whole cell phage ELISA, 3T3 human cMet vs 3T3
T2 construct: whole, on cells; cells fixed with glutaraldehyde; also called cell surface-expressed human cMet; 3T3 cells that over-express human cMet
Method: Whole cell ELISAs were performed using 3T3 cells that over-express human cMet. […] Briefly, 96-well plates were seeded with 10⁵ cells per well. The plates were centrifuged for 5 minutes at 1600 rpm to pellet the cells. The resulting cell layer was fixed with 0.1% (v/v) glutaraldehyde for 12 minutes at 37 C. […] Peptide-displaying phage also were blocked in the above solution for 1 hour at 37 C. 100 μL of blocked phage was then added to each well and the plates were incubated for 1 hour at room temperature. The plates were washed with PBST. cMet-binding peptide-displaying phage were detected using an HRP-conjugated anti-M13 antibody.

[3] = molecular target: T1, cMet-Fc fusion protein (extracellular …); test: phage ELISA on cMet-Fc, competitor HGF 500 ng/mL
Method: as §1

[4] = molecular target: T1, cMet-Fc fusion protein (extracellular …); test: phage ELISA, cMet-Fc vs TRAIL-Fc
Method: Protein phage ELISAs using peptide-displaying phage isolates from the various selection campaigns were performed to determine specificity of the peptides for cMet versus an unrelated Fc-fusion protein (TRAIL-Fe). Briefly, 384-well plates were coated overnight at 4 C with 0.5 μg/mL of cMet-Fc fusion protein or TRAIL-Fc fusion protein (background). The plates were blocked for 2 hours 37 C with 3% (w/v) BSA in PBS containing 0.05% (v/v) Tween-20 (PBST). The plates were washed with PBST and 100 μL of peptide-displaying phage were added to each well. The plates were incubated for 2 hours at room temperature and washed with PBST. cMet-binding peptide-displaying phage were detected using an HRP-conjugated anti-M13 antibody.

T1 sequence (P08581 25-932): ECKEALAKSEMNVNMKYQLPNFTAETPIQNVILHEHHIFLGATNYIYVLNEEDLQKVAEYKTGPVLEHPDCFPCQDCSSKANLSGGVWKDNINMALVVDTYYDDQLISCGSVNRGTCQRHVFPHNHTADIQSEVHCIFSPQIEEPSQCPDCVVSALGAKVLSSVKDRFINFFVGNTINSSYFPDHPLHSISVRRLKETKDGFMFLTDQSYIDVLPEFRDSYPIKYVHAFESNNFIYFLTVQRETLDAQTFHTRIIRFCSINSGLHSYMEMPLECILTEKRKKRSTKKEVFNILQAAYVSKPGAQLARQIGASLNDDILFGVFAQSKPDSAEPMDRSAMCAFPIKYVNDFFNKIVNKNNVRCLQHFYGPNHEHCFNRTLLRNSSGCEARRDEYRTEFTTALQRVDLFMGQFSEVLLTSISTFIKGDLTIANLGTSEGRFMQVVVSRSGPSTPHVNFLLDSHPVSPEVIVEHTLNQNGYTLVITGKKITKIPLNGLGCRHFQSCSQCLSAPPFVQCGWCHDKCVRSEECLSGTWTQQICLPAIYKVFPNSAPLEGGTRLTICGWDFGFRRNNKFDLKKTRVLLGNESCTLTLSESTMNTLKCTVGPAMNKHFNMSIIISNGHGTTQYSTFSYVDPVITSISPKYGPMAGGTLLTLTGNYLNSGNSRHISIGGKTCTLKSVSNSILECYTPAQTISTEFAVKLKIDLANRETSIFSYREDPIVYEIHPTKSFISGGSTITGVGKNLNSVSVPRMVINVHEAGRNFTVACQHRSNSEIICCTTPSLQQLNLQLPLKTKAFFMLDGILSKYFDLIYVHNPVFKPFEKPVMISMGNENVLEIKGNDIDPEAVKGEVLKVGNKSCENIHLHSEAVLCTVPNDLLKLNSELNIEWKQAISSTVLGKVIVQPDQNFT
T2 sequence (P08581 25-1390): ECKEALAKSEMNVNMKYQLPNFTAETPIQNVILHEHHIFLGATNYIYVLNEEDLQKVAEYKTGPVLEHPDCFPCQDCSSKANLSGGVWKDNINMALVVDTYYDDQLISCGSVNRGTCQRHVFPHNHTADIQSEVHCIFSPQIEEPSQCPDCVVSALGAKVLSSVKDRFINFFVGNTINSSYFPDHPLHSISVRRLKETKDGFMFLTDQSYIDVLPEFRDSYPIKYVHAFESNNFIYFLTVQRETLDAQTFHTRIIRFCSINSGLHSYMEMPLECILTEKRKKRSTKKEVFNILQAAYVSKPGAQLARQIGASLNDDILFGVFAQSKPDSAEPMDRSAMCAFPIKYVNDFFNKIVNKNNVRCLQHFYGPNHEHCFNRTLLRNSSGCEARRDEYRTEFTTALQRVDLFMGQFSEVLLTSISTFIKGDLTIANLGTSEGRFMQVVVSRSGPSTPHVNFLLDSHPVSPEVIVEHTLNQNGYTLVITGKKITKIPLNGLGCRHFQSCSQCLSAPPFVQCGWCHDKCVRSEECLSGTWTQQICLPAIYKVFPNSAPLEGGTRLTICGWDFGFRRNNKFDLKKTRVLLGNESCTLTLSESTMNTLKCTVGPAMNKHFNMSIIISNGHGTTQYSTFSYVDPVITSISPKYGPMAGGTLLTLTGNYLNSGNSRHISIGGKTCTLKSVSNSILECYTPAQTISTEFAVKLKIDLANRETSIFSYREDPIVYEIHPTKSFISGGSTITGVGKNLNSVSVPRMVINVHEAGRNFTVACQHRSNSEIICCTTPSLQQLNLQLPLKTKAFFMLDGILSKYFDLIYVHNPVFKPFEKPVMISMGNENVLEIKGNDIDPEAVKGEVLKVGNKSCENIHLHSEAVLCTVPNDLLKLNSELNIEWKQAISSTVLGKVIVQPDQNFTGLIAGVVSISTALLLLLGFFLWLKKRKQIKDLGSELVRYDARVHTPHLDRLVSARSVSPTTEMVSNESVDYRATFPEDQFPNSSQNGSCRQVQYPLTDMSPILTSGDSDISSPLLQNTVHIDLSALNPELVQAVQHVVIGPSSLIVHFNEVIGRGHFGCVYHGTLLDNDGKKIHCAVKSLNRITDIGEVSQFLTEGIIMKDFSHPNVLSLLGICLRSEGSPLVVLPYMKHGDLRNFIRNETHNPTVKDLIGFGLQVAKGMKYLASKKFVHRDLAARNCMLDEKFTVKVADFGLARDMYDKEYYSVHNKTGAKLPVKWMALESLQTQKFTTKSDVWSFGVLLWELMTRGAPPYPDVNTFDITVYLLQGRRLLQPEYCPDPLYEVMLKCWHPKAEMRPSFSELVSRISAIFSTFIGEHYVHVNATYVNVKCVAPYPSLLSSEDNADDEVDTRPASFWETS

Binder	% of binding in the absence of HGF [1] [%]	WC ELISA (fold over background) [2] [fold]	% of binding in the absence of HGF [3] [%]	Protein ELISA (fold over background) [4] [fold]
AGDIVCTGHPYFECWSWGT [333-C05 peptide-displaying phage (SEQ ID NO: 068)]	83	1.33	66	6.3
AGSYWCSGPPTFMCRYEGT [545-B12 peptide-displaying phage (SEQ ID NO: 085)]	51	1.27	42	17.1
GSSTICPGTACVDHAP [574-H03 peptide-displaying phage (SEQ ID NO: 008)]	88	1.27	18	3.2
AGTWHCAGPPWFTCYMDGT [551-B02 peptide-displaying phage (SEQ ID NO: 069)]	69	1.3	43	9
AGPWKCTGPPTFSCIQFGT [548-D08 peptide-displaying phage (SEQ ID NO: 090)]	97	1.23	62	19.5
AGNYWCSGPPSFICHAVGT [549-D02 peptide-displaying phage (SEQ ID NO: 091)]	47	1.27	36	8.9
AGSTDCRGHPTFECWGWGT [549-F06 peptide-displaying phage (SEQ ID NO: 086)]	96	1.3	40	5.2
AGEWWCHGPPEFLCYWTGT [331-F01 peptide-displaying phage (SEQ ID NO: 072)]	77	1.47	73	12.6
AGWSDCLGPPQFTCVHWGT [552-A01 peptide-displaying phage (SEQ ID NO: 083)]	76	1.33	81	3.9
AGTMYCLGPPTFICQQYGT [548-C06 peptide-displaying phage (SEQ ID NO: 084)]	94	1.23	77	13
GSLIICWWSWCDKQAP [567-C08 peptide-displaying phage (SEQ ID NO: 009)]	85	1.27	94	3.8
AGGWECTGPPWFQCGYYGT [334-C08 peptide-displaying phage (SEQ ID NO: 067)]	70	1.47	57	8
AGYSVCKGYPSFECAFFGT [336-D07 peptide-displaying phage (SEQ ID NO: 075)]	44	1.33	37	5.8
AGYWDCKGPPHFFCEWHGT [552-G11 peptide-displaying phage (SEQ ID NO: 080)]	55	1.23	41	7.4
AGYWSCAGPPMFMCTWQGT [552-G03 peptide-displaying phage (SEQ ID NO: 079)]	101	1.27	83	10.7
AGHWICVGPPTFSCQWHGT [330-G09 peptide-displaying phage (SEQ ID NO: 071)]	42	1.4	26	13.5
AGSIACTGWPYFSCIDLGT [547-H12 peptide-displaying phage (SEQ ID NO: 088)]	92	1.1	81	5.6
AGYFHCSGSPWFQCDYYGT [550-G08 peptide-displaying phage (SEQ ID NO: 081)]	79	1.4	58	9.1
AGSIQCVGPPSFECTPYGT [335-D11 peptide-displaying phage (SEQ ID NO: 074)]	56	1.37	37	6.7
AGSWECTGPPSFHCQWYGT [551-G12 peptide-displaying phage (SEQ ID NO: 070)]	88	1.37	46	3.9
AGYWHCKGPPHFACEFHGT [331-D03 peptide-displaying phage (SEQ ID NO: 077)]	64	1.4	55	5.5
AGQFYCSGPPTFQCIMIGT (not fully specified (bridges); cysteine pairing not given here) [550-F11 peptide-displaying phage (SEQ ID NO: 089)]	58	1.23	23	12.4
AGNWICTGPPSFGCWYHGT [331-G06 peptide-displaying phage (SEQ ID NO: 078)]	59	1.4	51	4.7
AGVNSCLGPPTFECYQMGT [332-C03 peptide-displaying phage (SEQ ID NO: 076)]	37	1.2	95	5.7
AGSSPCKGWPTFECYFYGT [552-F01 peptide-displaying phage (SEQ ID NO: 087)]	56	1.3	37	4.8
